From PMC10996581 (The Journal of Cell Biology, 2024)
Where no end group is shown, it is not given here.

What was measured:
IRE1αLDΔ308–357 mutant [1] = molecular target: T1, IRE1αLDΔ308–357 mutant (human, UniProt O75460 24-443, Δ308–357); test: […]
T1 sequence: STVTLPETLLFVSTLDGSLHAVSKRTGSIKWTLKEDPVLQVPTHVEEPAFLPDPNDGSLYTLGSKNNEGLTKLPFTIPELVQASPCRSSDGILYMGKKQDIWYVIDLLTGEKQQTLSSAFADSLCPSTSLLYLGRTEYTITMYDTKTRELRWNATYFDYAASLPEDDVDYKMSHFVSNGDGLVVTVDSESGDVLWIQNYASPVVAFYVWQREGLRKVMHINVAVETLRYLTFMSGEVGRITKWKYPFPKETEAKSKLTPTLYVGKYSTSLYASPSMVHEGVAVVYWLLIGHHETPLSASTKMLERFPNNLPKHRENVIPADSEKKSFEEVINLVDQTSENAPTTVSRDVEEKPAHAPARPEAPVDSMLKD

IRE1αLDΔ308–357 mutant [2] = molecular target: T1, IRE1αLDΔ308–357 mutant; test: MST

Binder: IYGWYRVHFGVLDEQLHR (also: 5-FAM labelled, position not given here) [CTxA_(I124-R141) peptide, 5-FAM labelled]
- binding result (IRE1αLDΔ308–357 mutant [1]): binds

B1: His6-CTxA1 (enzymatic A1 chain of the cholera toxin A subunit) (domain or fragment)
chain: NDDKLYRADSRPPDEIKQSGGLMPRGQSEYFDRGTQMNINLYDHARGTQTGFVRHDDGYVSTSISLRSAHLVGQTILSGHSTYYIYVIATAPNMFNVNDVLGAYSPHPDEQEVSALGGIPYSQIYGWYRVHFGVLDEQLHRNRGYRDRYYSNLDIAPAADGYGLAGFPPEHRAWREEPWIHHAPPGCGNAPRSS
- binding result (IRE1αLDΔ308–357 mutant [2]): binds
